Common to all, as to assay: purified protein
Common to all, as to details: 1.2 mM L-Trp, 25 mM Tris, 5 mM MgCl2, 50 mM KCl, pH 7.5, 35 °C

Substrate in series [1]: C/C(Br)=C/COP(=O)(O)OP(=O)(O)O
Substrate in series [2]: CC(C)=CCOP(=O)(O)OP(=O)(O)O
Substrate in series [3]: CC=CCOP(=O)(O)OP(=O)(O)O
Substrate in series [4]: CCC(=CCOP(=O)(O)OP(=O)(O)O)CC
Substrate in series [5]: COc1cccc(COP(=O)(O)OP(=O)(O)O)c1
Substrate in series [6]: COc1ccccc1COP(=O)(O)OP(=O)(O)O
Substrate in series [7]: O=P(O)(O)OP(=O)(O)OCC=C1CCCC1
Substrate in series [8]: O=P(O)(O)OP(=O)(O)OCc1ccc(Br)cc1
Substrate in series [9]: O=P(O)(O)OP(=O)(O)OCc1ccc(Cl)cc1
Substrate in series [10]: O=P(O)(O)OP(=O)(O)OCc1ccc(F)cc1
Substrate in series [11]: O=P(O)(O)OP(=O)(O)OCc1ccccc1

Results on one protein are retold here after publication PMC6748273.

B1: FgaPT2 (Aspergillus fumigatus Af293) (protein)
chain: MKAANASSAEAYRVLSRAFRFDNEDQKLWWHSTAPMFAKMLETANYTTPCQYQYLITYKECVIPSLGCYPTNSAPRWLSILTRYGTPFELSLNCSNSIVRYTFEPINQHTGTDKDPFNTHAIWESLQHLLPLEKSIDLEWFRHFKHDLTLNSEESAFLAHNDRLVGGTIRTQNKLALDLKDGRFALKTYIYPALKAVVTGKTIHELVFGSVRRLAVREPRILPPLNMLEEYIRSRGSKSTASPRLVSCDLTSPAKSRIKIYLLEQMVSLEAMEDLWTLGGRRRDASTLEGLSLVRELWDLIQLSPGLKSYPAPYLPLGVIPDERLPLMANFTLHQNDPVPEPQVYFTTFGMNDMAVADALTTFFERRGWSEMARTYETTLKSYYPHADHDKLNYLHAYISFSYRDRTPYLSVYLQSFETGDWAVANLSESKVKCQDAACQPTSLPPDLSKTGVYYSGLH
For orientation: kcat means the number of substrate molecules converted per active site and unit of time at saturation. What is called kcat/Km is the second-order rate constant that governs catalysis at low substrate concentration. With B1, the kcat was determined as 0.00783 ± 0.000167 s⁻¹ in series [1]; 0.833 ± 0.0167 s⁻¹ in series [2]; 0.0095 ± 0.000333 s⁻¹ in series [3]; 0.108 ± 0.00167 s⁻¹ in series [4]; 0.00283 ± 8.33e-05 s⁻¹ in series [5]; 0.0322 ± 0.000833 s⁻¹ in series [6]. For the same protein, the catalytic constant (kcat) in series [7] came to 0.084 ± 0.003 s⁻¹; in [8], 0.00223 ± 5e-05 s⁻¹; in series [9], 0.00327 ± 6.67e-05 s⁻¹; in [10], 0.0046 ± 6.67e-05 s⁻¹; in series [11], 0.0227 ± 0.000333 s⁻¹. The kcat/Km worked out at 21.7 ± 1.67 M⁻¹ s⁻¹ in series [1]; 5820 ± 467 M⁻¹ s⁻¹ in series [2]; 65 ± 6.67 M⁻¹ s⁻¹ in series [3]; 283 ± 16.7 M⁻¹ s⁻¹ in series [4]; 3.83 ± 0.333 M⁻¹ s⁻¹ in series [5]; 56.7 ± 3.33 M⁻¹ s⁻¹ in series [6]. Moreover, the kcat/Km in series [7] worked out at 267 ± 33.3 M⁻¹ s⁻¹; in series [8] it was 7 ± 0.667 M⁻¹ s⁻¹; in series [9] it was 7.67 ± 0.5 M⁻¹ s⁻¹; in series [10] it was 11.5 ± 0.667 M⁻¹ s⁻¹; in series [11], 103 ± 5 M⁻¹ s⁻¹.
